Substrate: NCCC(=O)N[C@@H](Cc1cnc[nH]1)C(=O)O
Assay: OPA fluorescence assay of liberated histidine, Michaelis-Menten fit
Assay type: biochemical, Homo sapiens
Details: pH 7, control without thiol
Source text: OPA fluorescence assay of liberated histidine, Michaelis-Menten fit on recombinant CN1 (rCN1)

B1: recombinant CN1 (rCN1) (Homo sapiens) (protein)
chain: SSPSPPPALLEKVFQYIDLHQDEFVQTLKEWVAIESDSVQPVPRFRQELFRMMAVAADTLQRLGARVASVDMGPQQLPDGQSLPIPPVILAELGSDPTKGTVCFYGHLDVQPADRGDGWLTDPYVLTEVDGKLYGRGATDNKGPVLAWINAVSAFRALEQDLPVNIKFIIEGMEEAGSVALEELVEKEKDRFFSGVDYIVISDNLWISQRKPAITYGTRGNSYFMVEVKCRDQDFHSGTFGGILHEPMADLVALLGSLVDSSGHILVPGIYDEVVPLTEEEINTYKAIHLDLEEYRNSSRVEKFLFDTKEEILMHLWRYPSLSIHGIEGAFDEPGTKTVIPGRVIGKFSIRLVPHMNVSAVEKQVTRHLEDVFSKRNSSNKMVVSMTLGLHPWIANIDDTQYLAAKRAIRTVFGTEPDMIRDGSTIPIAKMFQEIVHKSVVLIPLGAVDDGEHSQNEKINRWNYIEGTKLFAAFFLEMAQLH
notes: FLAG-tagged, secreted by transfected CHO cells, purified from supernatant; homodimer in vitro; dinuclear Zn site
With B1 the Km was 800 ± 100 µM and the Vmax was 0.07 µmol/min/mg.

Reference: PMC6009930, “Allosteric inhibition of carnosinase (CN1) by inducing a conformational shift” (Journal of Enzyme Inhibition and Medicinal Chemistry, 2017)
